Assay [1] concerns the target T1, CCK2R (Homo sapiens, UniProt P32239).
T1 construct: expressed in transfected cells; host or cells: HEK293
T1 sequence (P32239 1-447): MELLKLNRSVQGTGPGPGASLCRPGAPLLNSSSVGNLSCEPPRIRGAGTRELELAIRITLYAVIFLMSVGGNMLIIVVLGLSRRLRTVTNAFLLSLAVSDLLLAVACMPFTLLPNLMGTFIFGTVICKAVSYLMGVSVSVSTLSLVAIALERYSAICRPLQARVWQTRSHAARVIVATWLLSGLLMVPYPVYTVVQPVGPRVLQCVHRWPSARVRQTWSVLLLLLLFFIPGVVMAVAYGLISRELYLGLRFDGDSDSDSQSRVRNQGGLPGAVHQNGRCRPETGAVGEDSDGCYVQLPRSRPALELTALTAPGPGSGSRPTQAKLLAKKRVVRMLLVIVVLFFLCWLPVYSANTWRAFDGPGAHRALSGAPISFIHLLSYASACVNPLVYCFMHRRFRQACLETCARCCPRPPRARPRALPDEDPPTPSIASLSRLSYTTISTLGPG
Put plainly: SRE-luciferase agonist assay in transfected HEK293 cells. The note with it: tethered ligand cDNA cotransfected, 24 hours. The assay is classed as cell-based. The method, then: (§1) A) Tethered CCK4-Gly activates the CCK2 receptor (left panel). Potency of the corresponding soluble lipidated ligand agent (1-CCK4-Gly) exceeds that of soluble CCK-4-Gly (right panel). […] HEK293 cells were transiently cotransfected with cDNAs encoding: the designated CCK receptor subtype, a 5X-SRE-Luc-pest reporter gene (pGL4.33), tethered ligand (as indicated) and a β-galactosidase gene to control for transfection efficiency. Tethered ligand activity was measured 24 hours following transfection. To assess activity of soluble and lipidated CCK-4-Gly, cells were stimulated for 4 hours with ligand. Both soluble and tethered ligand activity was quantified relative to a parallel preparation of CCK receptor expressing cells stimulated for 4 hours with soluble amidated CCK-4 (s-CCK4-NH2, 10 μM) for CCK-2R and soluble amidated CCK-8 (s-CCK8-NH2, 10 μM) for CCK-1R.
(§2) Neurokinin receptors were purchased from the Missouri S+T cDNA Resource center. […] The nucleotide sequences of all receptor coding regions and tethered ligands were confirmed by automated DNA sequencing and analyzed using Vector NTI software (Invitrogen).

Assay [2] has as its target T2, CCK1R (Homo sapiens, UniProt P32238).
T2 construct: expressed in transfected cells; host or cells: HEK293
T2 sequence (P32238 1-428): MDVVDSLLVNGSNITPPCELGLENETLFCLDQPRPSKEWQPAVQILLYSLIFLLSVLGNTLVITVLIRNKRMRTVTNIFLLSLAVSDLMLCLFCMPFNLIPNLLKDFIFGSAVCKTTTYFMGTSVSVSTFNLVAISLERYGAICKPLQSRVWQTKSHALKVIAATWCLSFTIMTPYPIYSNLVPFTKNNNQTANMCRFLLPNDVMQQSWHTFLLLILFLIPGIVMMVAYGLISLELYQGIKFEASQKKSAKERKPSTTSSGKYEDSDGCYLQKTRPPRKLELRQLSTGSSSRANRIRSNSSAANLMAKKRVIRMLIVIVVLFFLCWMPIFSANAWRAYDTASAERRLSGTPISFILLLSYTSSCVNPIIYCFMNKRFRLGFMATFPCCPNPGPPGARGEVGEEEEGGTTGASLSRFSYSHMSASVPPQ
Described as above. The assay is classed as cell-based. The note with it: tethered ligand cDNA cotransfected, 24 hours. As for the experimental part: as §1, §2

With “tCCK4-Gly: membrane-tethered glycine extended CCK4 (WMDFG) (chain (part 1 of 2) MSTSMIRDVELAEEALPKKTGGPQGSRRCLFSLFIVAGATTLFCLLHFGVI; left off: small tags and cut ends)”, the “Activity of membrane-tethered ligand at CCK2R” value in assay [1] is “activated the CCK2R in a concentration dependent manner”. Further, the “Activity of membrane-tethered ligand at CCK1R” value in assay [2] is listed as “no activity”.

Source of the values: US11254720B2, “Methods and systems for designing and/or characterizing soluble lipidated ligand agents” (Tufts Medical Center, priority 2013, dated 2022).
